According to patent US20160168251A1 (MorphoSys, published 2016):

T1: human NPRA on HEK293 cells bound to ANP (human, UniProt P01160 124-151)
T1 sequence: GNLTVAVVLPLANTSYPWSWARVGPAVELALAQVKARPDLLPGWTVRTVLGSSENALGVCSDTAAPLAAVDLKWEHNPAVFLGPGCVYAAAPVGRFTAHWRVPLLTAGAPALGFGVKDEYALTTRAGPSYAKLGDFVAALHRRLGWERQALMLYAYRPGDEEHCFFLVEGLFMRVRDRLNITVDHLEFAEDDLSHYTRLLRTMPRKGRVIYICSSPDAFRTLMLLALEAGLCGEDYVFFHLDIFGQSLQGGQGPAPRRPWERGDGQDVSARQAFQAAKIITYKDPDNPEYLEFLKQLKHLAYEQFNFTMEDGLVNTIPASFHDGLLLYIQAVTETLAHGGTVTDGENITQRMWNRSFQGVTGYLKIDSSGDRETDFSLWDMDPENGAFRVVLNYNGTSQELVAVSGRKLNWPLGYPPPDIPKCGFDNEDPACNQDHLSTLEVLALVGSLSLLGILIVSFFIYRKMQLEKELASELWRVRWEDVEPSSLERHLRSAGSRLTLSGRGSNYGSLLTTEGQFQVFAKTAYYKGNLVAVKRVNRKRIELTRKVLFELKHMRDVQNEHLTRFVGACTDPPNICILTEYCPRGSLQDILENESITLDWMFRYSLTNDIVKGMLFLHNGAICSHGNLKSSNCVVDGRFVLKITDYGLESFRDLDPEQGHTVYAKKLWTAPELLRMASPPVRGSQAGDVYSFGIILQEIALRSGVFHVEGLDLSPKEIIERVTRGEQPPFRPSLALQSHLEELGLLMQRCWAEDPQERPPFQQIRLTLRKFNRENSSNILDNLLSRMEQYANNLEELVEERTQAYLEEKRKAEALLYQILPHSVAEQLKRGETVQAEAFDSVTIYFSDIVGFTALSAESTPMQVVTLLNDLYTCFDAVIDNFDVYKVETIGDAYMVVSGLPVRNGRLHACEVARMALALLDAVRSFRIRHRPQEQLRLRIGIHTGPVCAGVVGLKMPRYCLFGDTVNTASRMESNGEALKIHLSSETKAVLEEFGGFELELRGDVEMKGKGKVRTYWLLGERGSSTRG
T1 sequence (peptide): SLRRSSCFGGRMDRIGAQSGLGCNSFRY


Experiments:
[1] = molecular target: T1, human NPRA on HEK293 cells bound to ANP; assay: cell-based or functional assay
[2] = molecular target: T2, NPRA-Fc fusion protein bound to ANP (human, UniProt P01160 124-151); assay: SPR (Biacore 3000), NPRA-Fc amine-coupled on CM5, analyte with 100 nM human ANP
T2 construct: mature; Receptor-ligand complex; 'human ANP' is stated for Biacore, plain 'ANP' for ELISA and HXMS; also called NPRA-Fc+ANP

Row | EC50 of ANP, cGMP production in HEK NPRA cells, with 400 nM Fab [1] [nM] | Kd [2] [nM] | koff [2] [s⁻¹] | kon [2] [M⁻¹ s⁻¹] | Binder
1 | 0.5 to 0.6 |  |  |  | 5514 Fab (Fab, V domains shown) VH: QVQLQQSGPGLVKPSQTLSLTCAISGDSVSSRSASWSWIRQSPGRGLEWLGRIYYRSKWYNDYAVSVKSRITINPDTSKNQFSLQLNSVTPEDTAVYYCARMDVPSFRYFDVWGQGTLVTVSS VL: not shown
2 | 0.5 to 0.6 |  |  |  | 5513 Fab (Fab, V domains shown) VH: QVQLQQSGPGLVKPSQTLSLTCAISGDSVSSRSASWSWIRQSPGRGLEWLGRIYYRSKWYNDYAVSVKSRITINPDTSKNQFSLQLNSVTPEDTAVYYCARMDVPSFRYFDVWGQGTLVTVSS VL: not shown
3 |  | 0.426 | 0.000369 | 868000 | 5592 Fab (Fab, V domains shown) VH: QVQLQQSGPGLVKPSQTLSLTCAISGDSVSSRSASWSWIRQSPGRGLEWLGRTYYRSHWYYEYAQSVKSRITINPDTSKNQFSLQLNSVTPEDTAVYYCARMDVPSFRYFDVWGQGTLVTVSS VL: not shown
